Laboratory results reported in paper PMC2669833.

Biological target: Alvinella pompejana Cu, Zn superoxide dismutase (Alvinella pompejana)
Test: SAXS

## Alvinella pompejana Cu, Zn superoxide dismutase (enzyme)
  stoichiometry N: 2
